Assays:
[1] = immunoblot of ABCC11 WT, with/without PNGase F, MDCKII; details: glycan lost; control: high glucose medium
[2] = confocal microscopy, apical marker gp135, MDCKII; details: glycan lost; control: wild type
[3] = immunoblot of PNGase F-treated MDCKII lysates, densitometry; details: glycan lost; control: wild type
[4] = immunoblot, non-tagged ABCC11, adenovirus-infected MDCKII; details: glycan lost; control: untreated cells
[5] = immunoblot, ABCC11-EGFP in MDCKII, PNGase F-treated lysates; details: glycan lost; control: untreated cells
[6] = immunoblot after 24 h 2 μM MG132; details: glycan lost; control: wild type
[7] = cycloheximide chase, immunoblot, MDCKII; details: glycan lost; control: wild type
[8] = confocal microscopy after 12 h cycloheximide; details: glycan lost; control: wild type
[9] = immunoblot, high vs low glucose medium, MDCKII; details: glycan lost; control: wild type

## ABCC11 (MRP8): low glucose medium
[1]
  expression_or_secretion: decreases

## ABCC11 (MRP8): Q838
[2]
  localisation_or_trafficking: no change
[3]
  expression_or_secretion, percent_of_wt: no change

## ABCC11 (MRP8): tunicamycin (4.0 μg/mL)
[4]
  expression_or_secretion, other: percent of untreated control: decreases

## ABCC11 (MRP8): tunicamycin (0.8, 4.0 μg/mL)
[5]
  expression_or_secretion: decreases

## ABCC11 (MRP8): Q844
[2]
  localisation_or_trafficking: no change
[3]
  expression_or_secretion, percent_of_wt: no change

## ABCC11 (MRP8): Q838/844
[6]
  other: MG132-sensitive degradation, fold_change: increases, about 2-fold vs no significant difference
[7]
  degradation_or_half_life, half_life: decreases, about 6.2 vs about 12
[8]
  degradation_or_half_life: decreases
[9]
  other: glucose sensitivity of protein level: abolishes
[3]
  expression_or_secretion, percent_of_wt: decreases

Reference: publication PMC4900533
